These results are taken from patent publication US20190177415A1 (PIERRE FABRE MEDICAMENT, published 2019).

Assay [1] addresses T1, C10orf54 (antigen of the KD values in Table 42) (human, UniProt Q9H7M9 33-311, limits assumed).
T1 sequence: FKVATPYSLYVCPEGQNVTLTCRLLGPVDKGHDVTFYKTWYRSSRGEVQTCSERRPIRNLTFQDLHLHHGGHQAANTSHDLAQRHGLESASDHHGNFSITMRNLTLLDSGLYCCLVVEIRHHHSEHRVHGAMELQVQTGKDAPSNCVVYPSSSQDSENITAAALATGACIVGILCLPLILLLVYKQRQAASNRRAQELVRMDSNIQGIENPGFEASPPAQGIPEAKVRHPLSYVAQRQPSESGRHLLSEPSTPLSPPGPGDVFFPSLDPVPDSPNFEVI
Briefly: method and antigen form not stated.

Assay [2] concerns the target T2, chimeric C10orf54: human IgV with mouse STALK (construct CC5) (human/mouse chimera).
T2 construct: also called C10orf54 Construct 5; hsIGVmmSTALK
T2 chain: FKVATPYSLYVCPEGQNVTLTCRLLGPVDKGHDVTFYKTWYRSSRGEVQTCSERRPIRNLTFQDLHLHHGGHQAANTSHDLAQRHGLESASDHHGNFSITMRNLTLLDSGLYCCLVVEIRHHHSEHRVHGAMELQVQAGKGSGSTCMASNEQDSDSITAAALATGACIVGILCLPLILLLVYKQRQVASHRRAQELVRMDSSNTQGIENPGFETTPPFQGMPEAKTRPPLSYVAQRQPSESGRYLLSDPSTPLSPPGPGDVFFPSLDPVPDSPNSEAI
Briefly: flow cytometry, transfected 293t cells, 2 ug/ml; stain = MFI >=20-fold over isotype control. The method, then:
(§1) To investigate epitope diversity of the anti-human C10orf54 antibodies, 293t cells were transfected with 1 of 10 different C10orf54 expression constructs that co-express a fluorescent marker. Two days after transfection, cells were stripped from the tissue culture plate, stained with 2 μg/ml anti-human C10orf54 antibody , washed, stained with anti-mouse IgG-Fc Alexa Fluor 647 polyclonal antibody, washed, and stained with the viability dye 4′,6-Diamidino-2-Phenylindole, Dihydrochloride. Upon acquisition of 10,000 live events on a flow cytometer, live cells marked with the fluorescent marker were analyzed for the degree of staining by the anti-human C10orf54 antibody. When the median fluorescence intensity fold-change relative to an isotype control antibody was at least 20-fold, the antibody was considered to stain the C10orf54 expression construct in question.

The target in assay [3] is T3, chimeric C10orf54: mouse with human loop (construct CC10) (human/mouse chimera, UniProt Q9D659 33-308 (mouse entry)).
T3 construct: also called C10orf54 Construct 10; mmC10hsLOOP
T3 chain: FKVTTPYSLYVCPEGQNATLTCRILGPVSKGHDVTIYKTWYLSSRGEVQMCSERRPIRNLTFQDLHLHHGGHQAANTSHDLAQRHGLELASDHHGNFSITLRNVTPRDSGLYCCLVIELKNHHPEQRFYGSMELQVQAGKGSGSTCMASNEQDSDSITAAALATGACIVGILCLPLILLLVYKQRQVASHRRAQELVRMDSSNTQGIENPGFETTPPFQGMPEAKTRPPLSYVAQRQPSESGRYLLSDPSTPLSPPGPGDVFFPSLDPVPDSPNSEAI
The assay is described as above. The method, then:
as §1

In assay [4] the target is T4, chimeric C10orf54: first half of IgV mouse and remainder (including loop) human (construct CC8) (human/mouse chimera, UniProt Q9H7M9 33-311).
T4 construct: also called C10orf54 Construct 8; mmabChsC10
T4 chain: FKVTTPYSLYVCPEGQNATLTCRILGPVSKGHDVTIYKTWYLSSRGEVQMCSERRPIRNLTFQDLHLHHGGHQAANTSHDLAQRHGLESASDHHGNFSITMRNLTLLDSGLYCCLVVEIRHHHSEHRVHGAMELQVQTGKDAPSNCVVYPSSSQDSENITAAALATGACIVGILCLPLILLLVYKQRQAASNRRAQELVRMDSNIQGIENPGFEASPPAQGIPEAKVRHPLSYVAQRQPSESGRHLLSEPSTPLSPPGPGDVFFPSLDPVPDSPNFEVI
The assay is described as above. The method, then: as §1

Assay [5] concerns the target T5, full length cynomolgus monkey C10orf54 (construct CC4) (cynomolgus monkey, UniProt Q9H7M9 33-311 (human entry)).
T5 construct: also called C10orf54 Construct 4
T5 chain: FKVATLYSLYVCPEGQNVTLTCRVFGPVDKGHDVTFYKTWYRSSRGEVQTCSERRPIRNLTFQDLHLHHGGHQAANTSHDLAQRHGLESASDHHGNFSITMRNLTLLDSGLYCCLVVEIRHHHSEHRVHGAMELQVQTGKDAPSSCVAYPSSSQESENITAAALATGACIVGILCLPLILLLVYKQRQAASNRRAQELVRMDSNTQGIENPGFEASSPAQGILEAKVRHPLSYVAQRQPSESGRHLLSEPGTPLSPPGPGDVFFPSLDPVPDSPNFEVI
The description is as above. The method, then: as §1

Assay [6] addresses T6, chimeric C10orf54: human with mouse loop (construct CC9) (human/mouse chimera, UniProt Q9H7M9 33-311).
T6 construct: also called C10orf54 Construct 9; hsC10mmLOOP
T6 chain: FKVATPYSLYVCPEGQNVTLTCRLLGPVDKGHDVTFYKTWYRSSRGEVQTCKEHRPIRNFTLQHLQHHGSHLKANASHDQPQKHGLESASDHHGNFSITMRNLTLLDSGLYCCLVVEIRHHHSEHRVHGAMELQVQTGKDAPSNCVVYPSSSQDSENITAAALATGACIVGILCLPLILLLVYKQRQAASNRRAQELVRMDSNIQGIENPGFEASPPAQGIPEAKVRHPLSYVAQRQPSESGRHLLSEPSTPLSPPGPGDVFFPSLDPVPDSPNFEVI
The description is as above. The method, then:
as §1

The target in assay [7] is T1, C10orf54 (antigen of the KD values in …). Briefly: method and antigen form not stated; footnote: low affinity antibody.

B1: murine monoclonal antibody 26A (antibody, V domains shown)
VH: EVQLQQSGPELVKPGASMKISCKASGFSFTGYTMNWVKQSHVKNLEWIGLISPYNGGTSYNQKFKGKATLTVDKSSSTAYMELLSLTSEDSAVYYCARRAYGYAMDYWGQGTSVTVSS
VL: QIVLTQSPAIMSASPGEKVTMTCSASSSVSYMYWYQQKPGSSPRLLIYDTSNLASGVPLRFSGSGSGTSYSLTISRMEAEDAATYYCQQWSSYPFTFGSGTKLEIK
notes: Mouse hybridoma antibody
Consider B1, for which the Kd in assay [1] amounted to 0.677 nM. Further, the binding result in assay [2], in assay [3], in assay [4] and in assay [5] was “binds” each time.

B2: murine monoclonal antibody 208A (antibody, V domains shown)
VH: QVQLQQSGAELVRPGVSVKISCKGSGYTFTDYGMHWVKQSHAKSLEWIGVIDTYYGDAGYNQKFKGKATMTVDKSSSTAYMELARLTSEDSAIYYCARRAGNAMDYWGQGTSVTVSS
VL: SIVMTQTPKFLLVSAGDRVTITCKASQSVSNDVAWYQQKPGQSPKLLIYYASNRYTGVPDRFTGSGYGTDFTFTISTVQAEDLAVYFCQQDYSSPRTFGGGTKLEIK
notes: Mouse hybridoma antibody
Take B2: binding in assay [1] was put at a Kd of 2.48 nM. For the same molecule, the binding result in assay [2], in assay [3], in assay [4] and in assay [5] was “binds” in each case.

B3: murine monoclonal antibody 353A (antibody, V domains shown)
VH: EVKLLESGGGLVQPGGSLKLSCAASGFDFSRYWMNWVRQAPGKGLEWIGEINPDSSTINYTPSLKDKFIISRDNAKNTLYLQMSKVRYEDTALYYCARPGEIYYYGSYWFAYWGQGTLVTVSA
VL: DIVLTQSPASLAVSLGQRATISCRASESVEYYGTSLMQWFQQKPGQPPKLLIYAASNVESRVPARFSGSGSGTDFSLNIHPVEEDDIAMYFCQQSRKDPWTFGGGTKLEIK
notes: Mouse hybridoma antibody
For B3, the Kd in assay [1] amounted to 2.9 nM. Moreover, the binding result in assay [2], in assay [6], in assay [4] and in assay [5] was “binds” each time.

B4: murine monoclonal antibody 230A (antibody, V domains shown)
VH: EVQLQQSGPELEKPGASVKISCKASGYSFTGSNMNWVKQNNGKSLEWIGNIDPYYGYTTYNQKFKGKATLTVDKSSSTAYMQLKSLTSEDSAVYYCARDYDYALGYFDVWGAGTTVTVSS
VL: DVVMTQTPLSLPVSLGDQASISCRSSQSLVHSNGNTYLHWYLQKPGQSPKLLIYKVSNRFSGVPDRFSGSGSGTDFTLKISRVEAEDLGVYFCSQSTHVPYTFGGGTKLEIK
notes: Mouse hybridoma antibody
In turn, B4 gave a Kd in assay [1] of 1.05 nM. For the same molecule, the binding result in assay [2], in assay [3], in assay [4] and in assay [5] was “binds” each time.

B5: murine monoclonal antibody 33A (antibody, V domains shown)
VH: QVQLQQSGAELMKPGASVKISCKATGYTFSSYWIEWVKQRPGHGLEWIGEILPGSGSTSYNEKFKGKATFTADTSSNTAYMQLSGLTSEDSAVYYCARWLLYYYAMVYWGQGTSVTVSS
VL: DVLMTQTPLSLPVSLGDQASISCRSSQSIVHSNGNTYLEWYLQKPGQSPKLLIYKVSNRFSGVPDRFSGSGSGTDFTLKISRVEAEDLGVYYCFQGSHVPYTFGGGTKLEIK
notes: Mouse hybridoma antibody
The molecule B5 returned a Kd in assay [1] of 6.61 nM. Further, the binding result in assay [2], in assay [3], in assay [4] and in assay [5] was “binds” each time.

B6: murine monoclonal antibody 175A (antibody, V domains shown)
VH: QVQLQQSGAELMKPGASVKISCKATGYTFSTHWIEWVKQRPGHGLEWIGEILPGSGSTSYNEKFKGKATFTADTSSNTAYMQLSSLTSEDSAVYYCARWLLYYYAMDYWGQGTSVTVSS
VL: DVLMTQTPLSLPVSLGDQASISCRSSQSIVHSNGNTYLEWYLQKPGQSPKLLIYKLSNRFSGVPDRFSGSGSGTDFTLKISRVEAEDLGVYYCFQGSHFPYTFGGGTKLEIK
notes: Mouse hybridoma antibody
Take B6: the affinity in assay [7], expressed as Kd, was 108 nM. In addition, the binding result in assay [2] and in assay [5] was “binds” throughout.

B7: murine monoclonal antibody 321D (antibody, V domains shown)
VH: QVQLQQSGAELMKPGAAVKISCKATGYTFSSHWIEWVKQRPGHGLEWIGEILPGSGSTDYNEKFKGKATFTADTSSNTAYMQLSSLTSEDSAVYYCARWLLYYYAMDYWGQGTSVTVSS
VL: DVLMTQTPLSLPVSLGDQASISCRSSQSIVHSNGNTYLEWYLQKPGQSPKLLIYKVSNRFSGVPDRFSGSGSGTDFTLKITRVEAEDLGVYYCFQGSHVPFTFGGGTKLEIK
notes: Mouse hybridoma antibody
For the molecule B7, the Kd in assay [1] worked out at 7.26 nM. Besides, the binding result in assay [2], in assay [3], in assay [4] and in assay [5] was “binds” in each case.

B8: murine monoclonal antibody 141A (antibody, V domains shown)
VH: QVQLQQSGAELMKPGASVKISCKATGYTFSRYWIEWVKQRPGHGLEWIGEILPGSGSTNYNEKFKGKATFTADTSSNTAYMQLSSLTSEDSAVYYCAGEEVYDGYPWFGYWGQGTLVTVSA
VL: QIVLSQSPAILSASPGEKVTMTCRASSSLSYMHWYQQKPGSSPKPWIYATSNLASGVPARFSGSGSGTSYSLTISRVEAEDAATYYCQQWSSNPYTFGGGTKLEIK
notes: Mouse hybridoma antibody
Turning to B8, the Kd in assay [1] is 1.27 nM. For the same molecule, the binding result in assay [2], in assay [6], in assay [4] and in assay [5] was “binds” in each case.
